Assay results published in patent publication US20230357425A1 (HARBOUR BIOMED SHANGHAI, published 2023).

Biological target: T1, Cynomolgus monkey CD73 on HEK293-cynoCD73 stable cell line (cynomolgus monkey)
T1 construct: whole, on cells
Test: flow cytometry on HEK293-cynoCD73 stable cells
Protocol: Binding of antibodies to hCD73 and cynoCD73 expression in stable cell line was characterized by Flow cytometry. The cells were incubated with various concentration antibodies (the top concentration was 50 nM, 8 points, dilution factor 3), then incubate for 1 h at 4° C. Wash two times by PBS, then add the secondary antibody Goat anti-human(H+L) (Thermo fisher, A11013), incubate for 30 min at 4° C. And the fluorescence intensity was read by FACS Machine (BD FACS CantoII). A plot of median fluorescence intensity and the binding EC50 were fitted and calculated by GraphPad Prism 5.

Row | EC50 [pM] | Binder
1 | 322 | PR000506 (antibody, human IgG1, kappa, L234A L235A, V domains shown, Recombinant antibody from hybridoma clone 38H6; also called 38H6E5 (clone name)) VH: QVQLVESGGGVAQPGRSLSLSCAASGFTFSDYGMHWVRQAPGKGLEWVALIWYDGSFEYYADSVKGRFSISRDNSKNTLYLQMNSLRAEDTAVYYCVRDGQWGSRLDYWGQGTLVTVSS VL: KIVMTQSPATLSLSPGERATLSCRASQSVSRYLAWYQQKPGQAPRLLIYDASNRATGIPARFSGSGSGTDFTLTISSLEPEDFAVYYCQQRSNWIFTFGPGTKVDIKR
2 | 475 | PR000844 (antibody, human IgG1, kappa, L234A L235A, V domains shown, PTM-removal variant of PR000506 (heavy chain D54E, G100A)) VH: QVQLVESGGGVAQPGRSLSLSCAASGFTFSDYGMHWVRQAPGKGLEWVALIWYEGSFEYYADSVKGRFSISRDNSKNTLYLQMNSLRAEDTAVYYCVRDAQWGSRLDYWGQGTLVTVSS VL: KIVMTQSPATLSLSPGERATLSCRASQSVSRYLAWYQQKPGQAPRLLIYDASNRATGIPARFSGSGSGTDFTLTISSLEPEDFAVYYCQQRSNWIFTFGPGTKVDIKR
3 | 515 | PR000849 (antibody, human IgG1, kappa, L234A L235A, V domains shown, PTM-removal variant of PR000851 (heavy chain G55A, D99E)) VH: QVQLVESGGGVAQPGRSLSLSCAASGFTFSDYGMHWVRQAPGKGLEWVALIWYDASFEYYADSVKGRFSISRDNSKNTLYLQMNSLRAEDTAVYYCVREGQWGSRLDYWGQGTLVTVSS VL: EIVLTQSPATLSLSPGERATLSCRASQSVSRYLAWYQQKPGQAPRLLIYDASNRATGIPARFSGSGSGTDFTLTISSLEPEDFAVYYCQQRSNWIFTFGPGTKVDIKR
4 | 623 | Tab1 (antibody, human IgG1, lambda, V domains shown, also called PR002078; MEDI9447(TAB1)) VH: EVQLLESGGGLVQPGGSLRLSCAASGFTFSSYAYSWVRQAPGKGLEWVSAISGSGGRTYYADSVKGRFTISRDNSKNTLYLQMNSLRAEDTAVYYCARLGYGRVDEWGRGTLVTVSS VL: QSVLTQPPSASGTPGQRVTISCSGSLSNIGRNPVNWYQQLPGTAPKLLIYLDNLRLSGVPDRFSGSKSGTSASLAISGLQSEDEADYYCATWDDSHPGWTFGGGTKLTVLG
